The values that follow come from paper PMC4142144 (Molecular cell, 2014).

Series [1] deals with the molecule itself. As to the kind of experiment: SEC-MALS.
The target in series [2] is mono-ubiquitin (UniProt P0CG48 1-76). As to the kind of experiment: crystal structure.

B1: 2CARD^RIG-I(E52A)-CARD^MAVS(KKK) fusion protein, 42 aa linker (other)
chain: MTTEQRRSLQAFQDYIRKTLDPTYILSYMAPWFREEEVQYIQAEKNNKGPMAAATLFLKFLLELQEEGWFRGFLDALDHAGYSGLYEAIESWDFKKIEKLEEYRLLLKRLQPEFKTRIIPTDIISDLSECLINQECEEILQICSTKGMMAGAEKLVECLLRSDKENWPKTLKLALEKERNKFSELWIVMPFAEDKTYKYICRNFSNFCNVKVVKILPYLPCLTARDQDRLRATCTLSGNRDTLWHLFNTLQRRPGWVEYFIAALRGCKLVDLADEVASVYQSYQP
Take B1: the “stoichiometry N” value in series [1] stood at 4.

B2: 2CARD^RIG-I(E52A) (domain or fragment, human, UniProt O95786 1-188, looked up)
chain: MTTEQRRSLQAFQDYIRKTLDPTYILSYMAPWFREEEVQYIQAEKNNKGPMAAATLFLKFLLELQEEGWFRGFLDALDHAGYSGLYEAIESWDFKKIEKLEEYRLLLKRLQPEFKTRIIPTDIISDLSECLINQECEEILQICSTKGMMAGAEKLVECLLRSDKENWPKTLKLALEKERNKFSELWIV
As for B2, the binding result in series [2] is listed as “binds”.

As a reminder, the stoichiometry N is a count of units in the complex or per binding partner.
